{"source": "patent US20020155503", "key": {"[1]": {"molecular_target": "Biotin-εAHA-DEEDYFE(Nle)"}, "[2]": {"molecular_target": "T1, Lys-Lys-Lys-Lys-Ala-Asp-Glu-Glu-Asp-Tyr-Phe-Ile-Pro-Pro-Ala", "T1 chain": "KKKKADEEDYFIPPA"}, "[3]": {"molecular_target": "Serine-tyrosine-phenylalanine-histamine-glutamine"}, "[4]": {"molecular_target": "Asp-Glu-Glu-Tyr-Phe"}, "[5]": {"molecular_target": "Asp-Glu-Glu-Glu-Tyr"}, "[6]": {"molecular_target": "Asp-Tyr-His-Leu-Phe"}, "[7]": {"molecular_target": "Tyr-Pro-Ile-Glu-Val"}, "[8]": {"molecular_target": "Asp-Glu-Tyr-His-Asn"}}, "data": [{"protein": "catalytic domain of human ZAP-70 (amino acid 306-615), recombinant, from baculovirus-infected Sf9 cells (protein) RPMPMDTSVYESPYSDPEELKDKKLFLKRDNLLIADIELGCGNFGSVRQGVYRMRKKQIDVAIKVLKQGTEKADTEEMMREAQIMHQLDNPYIVRLIGVCQAEALMLVMEMAGGGPLHKFLVGKREEIPVSNVAELLHQVSMGMKYLEEKNFVHRDLAARNVLLVNRHYAKISDFGLSKALGADDSYYTARSAGKWPLKWYAPECINFRKFSSRSDVWSYGVTMWEALSYGQKPYKKMKGPEVMAFIEQGKRMECPPECPPELYALMSDCWIYKWEDRPDFLTVEQRMRACYYSLASKVEGPPGSTQKAE", "values": [{"measurement": "Km (33P-γ-ATP phosphorylation of the biotin peptide, streptavidin filter plate capture)", "setting": "[1]", "result": 15.79, "unit": "µM"}, {"measurement": "protein kinase activity against the peptide substrate (column fractions)", "setting": "[2]", "result": "ZAP-70 fractions identified by protein kinase activity against the peptide substrate Lys-Lys-Lys-Lys-Ala-Asp-Glu-Glu-Asp-Tyr-Phe-Ile-Pro-Pro-Ala"}]}, {"protein": "recombinant form of the Abelson murine leukaemia virus protein tyrosine kinase v-Abl (protein) YITPVNSLEKHSWYHGPVSRNAAEYLLSSGINGSFLVRESESSPGQRSISLRYEGRVYHYRINTASDGKLYVSSESRFNTLAELVHHHSTVADGLITTLHYPAPKRNKPTIYGVSPNYDKWEMERTDITMKHKLGGGQYGEVYEGVWKKYSLTVAVKTLKEDTMEVEEFLKEAAVMKEIKHPNLVQLLGVCTREPPFYIITEFMTYGNLLDYLRECNRQEVSAVVLLYMATQISSAMEYLEKKNFIHRDLAARNCLVGENHLVKVADFGLSRLMTGDTYTAHAGAKFPIKWTAPESLAYNKFSIKSDVWAFGVLLWEIATYGMSPYPGIDLSQVYELLEKDYRMERPEGCPEKVYELMRACWQWNPSDRPSFAEIHQAFETMFQESSISDEVEKELGKRG", "values": [{"measurement": "phosphorylation of library peptide, anti-phosphotyrosine ELISA (absorbance at 450 nm); preferred substrate of Library Sub-Set 4", "setting": "[3]", "result": "The active site substrate recognition substrate for this enzyme for this Sub-Set was Serine-tyrosine-phenylalanine-histamine-glutamine [SEQ ID No. 21]"}]}, {"protein": "recombinant form of the human CSK enzyme (protein) MSAIQAAWPSGTECIAKYNFHGTAEQDLPFCKGDVLTIVAVTKDPNWYKAKNKVGREGIIPANYVQKREGVKAGTKLSLMPWFHGKITREQAERLLYPPETGLFLVRESTNYPGDYTLCVSCDGKVEHYRIMYHASKLSIDEEVYFENLMQLVEHYTSDADGLCTRLIKPKVMEGTVAAQDEFYRSGWALNMKELKLLQTIGKGEFGDVMLGDYRGNKVAVKCIKNDATAQAFLAEASVMTQLRHSNLVQLLGVIVEEKGGLYIVTEYMAKGSLVDYLRSRGRSVLGGDCLLKFSLDVCEAMEYLEGNNFVHRDLAARNVLVSEDNVAKVSDFGLTKEASSTQDTGKLPVKWTAPEALREKKFSTKSDVWSFGILLWEIYSFGRVPYPRIPLKDVVPRVEKGYKMDAPDGCPPAVYEVMKNCWHLDAAMRPSFLQLREQLEHIKTHELHL", "values": [{"measurement": "phosphorylation of library peptide, anti-phosphotyrosine ELISA (absorbance at 450 nm); preferred substrate of the sub-set", "setting": "[4]", "result": "Library Sub-Set 2 Asp-Glu-Glu-Tyr-Phe [SEQ ID No. 17]"}, {"measurement": "phosphorylation of library peptide, anti-phosphotyrosine ELISA (absorbance at 450 nm); preferred substrate of the sub-set", "setting": "[5]", "result": "Library Sub-Set 1 Asp-Glu-Glu-Glu-Tyr [SEQ ID No. 16]"}, {"measurement": "phosphorylation of library peptide, anti-phosphotyrosine ELISA (absorbance at 450 nm); preferred substrate of the sub-set", "setting": "[6]", "result": "Library Sub-Set 4 Asp-Tyr-His-Leu-Phe [SEQ ID No. 19]"}, {"measurement": "phosphorylation of library peptide, anti-phosphotyrosine ELISA (absorbance at 450 nm); preferred substrate of the sub-set", "setting": "[7]", "result": "Library Sub-Set 5 Tyr-Pro-Ile-Glu-Val [SEQ ID No. 20]"}, {"measurement": "phosphorylation of library peptide, anti-phosphotyrosine ELISA (absorbance at 450 nm); preferred substrate of the sub-set", "setting": "[8]", "result": "Library Sub-Set 3 Asp-Glu-Tyr-His-Asn [SEQ ID No. 18]"}]}]}
